Reference: the RNAGym collection of RNA variant scans (doi:10.7554/elife.80360)

B1: CPEB3 Ribozyme (parent)
chain: GGGGGCCACAGCAGAAGCGUUCACGUCGCGGCCCCUGUCAGAUUCUGGUGAAUCUGCGAAUUCUGCUGU

Variants of: B1
Test: self-cleavage, relative activity (ratio to wild type); higher = more cleavage; co-transcriptional
Work on C33U C35G yielded a self-cleavage of 0.396.
With C33U C35U the self-cleavage was 0.884.
For C33U A42C, the self-cleavage was 0.793.
For C33U A42U, the self-cleavage was 0.953.
With C33U A42G the self-cleavage was 0.916.
C33G U46G gave a self-cleavage of 0.604.
C33G U46C showed a self-cleavage of 0.783.
With C33U G37A the self-cleavage was 0.265.
In the case of C33U G37C, the self-cleavage is reported as 0.242.
C34A G37A showed a self-cleavage of 0.301.
C34A G37U gave a self-cleavage of 0.26.
With C34A U62A the self-cleavage was 0.602.
In the case of C34A U62G, the self-cleavage is reported as 0.434.
For C34A U62C, the self-cleavage was 0.358.
Variant C33U U61C has a self-cleavage of 0.913.
C33U U61A gave a self-cleavage of 0.905.
Variant C33U U61G has a self-cleavage of 0.82.
For C33U U46A, the self-cleavage was 0.98.
C33U U46C showed a self-cleavage of 0.977.
Work on C33U U46G yielded a self-cleavage of 0.979.
In the case of C33G G65C, the self-cleavage is reported as 0.424.
Work on C33G G65U yielded a self-cleavage of 0.376.
C33G G65A showed a self-cleavage of 0.511.
Variant C34A A40G has a self-cleavage of 0.788.
Variant C34A A40U has a self-cleavage of 0.468.
Work on C33U G65U yielded a self-cleavage of 0.749.
With C33G U38A the self-cleavage was 0.582.
In the case of C33U U67A, the self-cleavage is reported as 0.971.
C33U U67G gave a self-cleavage of 0.982.
C34A A52G gave a self-cleavage of 0.497.
Variant C34A A52C has a self-cleavage of 0.597.
For C33U U44G, the self-cleavage was 0.945.
C34A A59G gave a self-cleavage of 0.609.
In the case of C34A A59U, the self-cleavage is reported as 0.436.
C33U U53C gave a self-cleavage of 0.861.
C33U U53G gave a self-cleavage of 0.727.
Variant C33U U53A has a self-cleavage of 0.932.
C34A G50U gave a self-cleavage of 0.8.
C33U C66G gave a self-cleavage of 0.921.
In the case of C34A C45U, the self-cleavage is reported as 0.798.
With C33G U55A the self-cleavage was 0.571.
C33G U55G gave a self-cleavage of 0.38.
Work on C34A U36A yielded a self-cleavage of 0.229.
Variant C33G U61G has a self-cleavage of 0.193.
With C33G U61A the self-cleavage was 0.317.
C33G U61C showed a self-cleavage of 0.341.
With C33U C63A the self-cleavage was 0.795.
With C33U C63U the self-cleavage was 0.936.
For C33U C63G, the self-cleavage was 0.82.
C33U C57U gave a self-cleavage of 0.345.
For C33U G47C, the self-cleavage was 0.969.
Work on C33U G47U yielded a self-cleavage of 0.985.
Variant C33U G47A has a self-cleavage of 0.972.
C33U U55A showed a self-cleavage of 0.965.
Variant C33U U69G has a self-cleavage of 1.06.
With C33U U69C the self-cleavage was 1.05.
C33U U69A gave a self-cleavage of 1.01.
C33U G50C gave a self-cleavage of 1.
C33U G50A gave a self-cleavage of 0.979.
C34A U46G gave a self-cleavage of 0.843.
Work on C33U C45G yielded a self-cleavage of 0.98.
Variant C33U C45A has a self-cleavage of 0.987.
Work on C33U A59G yielded a self-cleavage of 0.959.
Variant C33U A59C has a self-cleavage of 0.706.
Variant C33U A59U has a self-cleavage of 0.8.
Variant C33G U69A has a self-cleavage of 0.82.
For C33G U69G, the self-cleavage was 0.899.
Variant C34A U64C has a self-cleavage of 0.728.
C34A U64A showed a self-cleavage of 0.794.
Work on C34A U49C yielded a self-cleavage of 0.79.
For C34A U49A, the self-cleavage was 0.867.
With C34A C35U the self-cleavage was 0.226.
With C34A C35G the self-cleavage was 0.177.
With C34A C39U the self-cleavage was 0.467.
C34A C39G showed a self-cleavage of 0.538.
Variant C34A U43G has a self-cleavage of 0.479.
C34A U43A showed a self-cleavage of 0.514.
With C33G U49A the self-cleavage was 0.748.
Work on C33G U49C yielded a self-cleavage of 0.645.
Variant C34A C54U has a self-cleavage of 0.69.
Work on C33U U36G yielded a self-cleavage of 0.295.
C33U U36C gave a self-cleavage of 0.874.
In the case of C33G U44C, the self-cleavage is reported as 0.576.
C33G U44G showed a self-cleavage of 0.333.
Variant C33G U62A has a self-cleavage of 0.391.
C33G U62G gave a self-cleavage of 0.374.
With C33U G41C the self-cleavage was 0.728.
C33U G41U showed a self-cleavage of 0.821.
With C33G U53A the self-cleavage was 0.395.
Work on C33G U53G yielded a self-cleavage of 0.32.
C33U C34A gave a self-cleavage of 0.413.
With C33U C34U the self-cleavage was 0.825.
In the case of C33G U36G, the self-cleavage is reported as 0.25.
With C33G U36A the self-cleavage was 0.13.
C34A U69G showed a self-cleavage of 0.947.
For C34A U69A, the self-cleavage was 0.971.
C34A G41A showed a self-cleavage of 0.341.
For C34A G41U, the self-cleavage was 0.339.
C34A G41C gave a self-cleavage of 0.33.
In the case of C33U A51U, the self-cleavage is reported as 0.963.
In the case of C33U A51G, the self-cleavage is reported as 0.922.
In the case of C33U A51C, the self-cleavage is reported as 0.948.
C33G G68A gave a self-cleavage of 0.922.
C33G U43G gave a self-cleavage of 0.377.
With C33U U43A the self-cleavage was 0.915.
Work on C33U U43G yielded a self-cleavage of 0.678.
In the case of C34A C57A, the self-cleavage is reported as 0.255.
In the case of C34A C57G, the self-cleavage is reported as 0.285.
C34A C57U showed a self-cleavage of 0.285.
Work on C33U U38C yielded a self-cleavage of 0.899.
C33U U38G gave a self-cleavage of 0.215.
C34A G65A gave a self-cleavage of 0.617.
In the case of C34A G65U, the self-cleavage is reported as 0.57.
Variant C33U G68C has a self-cleavage of 1.02.
For C34A C63G, the self-cleavage was 0.411.
Work on C34A C63U yielded a self-cleavage of 0.817.
Variant C34A C63A has a self-cleavage of 0.495.
Work on C34A G47A yielded a self-cleavage of 0.915.
C34A G47C showed a self-cleavage of 0.887.
Variant C34A G47U has a self-cleavage of 0.914.
In the case of C33U A40U, the self-cleavage is reported as 0.906.
Variant C33U A40C has a self-cleavage of 0.619.
Work on C33U A40G yielded a self-cleavage of 0.952.
C33G U67C showed a self-cleavage of 0.777.
With C34A A42C the self-cleavage was 0.46.
With C33U U49C the self-cleavage was 1.02.
Work on C33U U49A yielded a self-cleavage of 0.97.
With C33U U49G the self-cleavage was 0.996.
Variant C34A U44C has a self-cleavage of 0.724.
C34A U44G showed a self-cleavage of 0.526.
C33U C54U showed a self-cleavage of 0.949.
For C33G U64C, the self-cleavage was 0.484.
With C33G U64G the self-cleavage was 0.395.
In the case of C33G U64A, the self-cleavage is reported as 0.638.
Variant C33U A52C has a self-cleavage of 0.978.
For C34A U61A, the self-cleavage was 0.466.
C34A U61C showed a self-cleavage of 0.432.
In the case of C33U C39A, the self-cleavage is reported as 0.866.
For C33U U64G, the self-cleavage was 0.941.
For C33U U64C, the self-cleavage was 0.92.
For C33U U64A, the self-cleavage was 0.919.
In the case of C34A G56C, the self-cleavage is reported as 0.438.
C34A G56U gave a self-cleavage of 0.679.
C34A G58A gave a self-cleavage of 0.656.
Variant C34A C66U has a self-cleavage of 0.874.
C34A C66G gave a self-cleavage of 0.667.
C34A U55G gave a self-cleavage of 0.357.
For C34A U55C, the self-cleavage was 0.264.
Variant C34A G48C has a self-cleavage of 0.857.
In the case of C34A G48U, the self-cleavage is reported as 0.877.
C34G gave a self-cleavage of 0.74.
Work on C34A yielded a self-cleavage of 0.869.
Work on C34A A51G yielded a self-cleavage of 0.469.
C34A G68A showed a self-cleavage of 0.935.
With C34A G68U the self-cleavage was 0.956.
In the case of C34A G68C, the self-cleavage is reported as 0.954.
C33U G56A showed a self-cleavage of 0.949.
Work on C33U G56U yielded a self-cleavage of 0.963.
In the case of C33U G56C, the self-cleavage is reported as 0.849.
C34A U53C gave a self-cleavage of 0.565.
For C34A U53G, the self-cleavage was 0.331.
Work on C34A U53A yielded a self-cleavage of 0.409.
Variant C33U A60G has a self-cleavage of 0.814.
For C33U A60U, the self-cleavage was 0.505.
With C33U G48C the self-cleavage was 0.998.
With C33U G48U the self-cleavage was 1.03.
C33U G48A gave a self-cleavage of 1.
